This test deals with GSK3β used in the surface plasmon resonance binding assays (UniProt P49841 1-420). Description: SPR.

The results in this text go back to PMC2704382 (Cell, 2009).

Chain of GSK3β used in the surface plasmon resonance binding assays (P49841 whole entry): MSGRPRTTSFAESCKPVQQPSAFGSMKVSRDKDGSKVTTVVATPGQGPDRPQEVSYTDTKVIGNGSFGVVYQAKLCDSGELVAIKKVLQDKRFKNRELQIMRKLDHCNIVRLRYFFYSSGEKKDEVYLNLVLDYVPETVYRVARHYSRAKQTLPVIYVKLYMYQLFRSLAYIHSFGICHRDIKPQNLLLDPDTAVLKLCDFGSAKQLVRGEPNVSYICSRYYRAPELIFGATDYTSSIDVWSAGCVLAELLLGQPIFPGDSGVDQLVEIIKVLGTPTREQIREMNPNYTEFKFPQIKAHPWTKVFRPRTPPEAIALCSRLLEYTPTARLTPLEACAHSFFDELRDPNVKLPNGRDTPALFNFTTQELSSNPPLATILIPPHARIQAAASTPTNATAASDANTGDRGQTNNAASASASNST

As for SFSFIQLSLGAAGER (peptide, UniProt Q811T9 211-225, looked up) [DISCtide2 (15-mer peptide, mDISC1 amino acids 211 to 225)], the “stoichiometry N” value was 2 peptide:protein.
For PADIASLPGFQDTFTSSFSFIQLSLGAAGERGEAEGCLPSREAE (peptide, UniProt Q811T9 195-238, looked up) [DISCtide-1 (mDISC1 amino acids 195 to 238)], the “stoichiometry N” value is 2 peptide:protein.
